Consider four molecules from patent publication US20240360248A1 (NANOMAB TECHNOLOGY, published 2024).

Changes are numbered by the printed parent chain.

Sequences and labels used below:
T1: human PTK7-Fc protein antigen (human, UniProt Q13308 31-704)
T1 construct: extracellular domain; also called human PTK7 extracellular segment protein; not shown: Fc from the pFUSE-IgG recombinant plasmid
T1 sequence (looked up): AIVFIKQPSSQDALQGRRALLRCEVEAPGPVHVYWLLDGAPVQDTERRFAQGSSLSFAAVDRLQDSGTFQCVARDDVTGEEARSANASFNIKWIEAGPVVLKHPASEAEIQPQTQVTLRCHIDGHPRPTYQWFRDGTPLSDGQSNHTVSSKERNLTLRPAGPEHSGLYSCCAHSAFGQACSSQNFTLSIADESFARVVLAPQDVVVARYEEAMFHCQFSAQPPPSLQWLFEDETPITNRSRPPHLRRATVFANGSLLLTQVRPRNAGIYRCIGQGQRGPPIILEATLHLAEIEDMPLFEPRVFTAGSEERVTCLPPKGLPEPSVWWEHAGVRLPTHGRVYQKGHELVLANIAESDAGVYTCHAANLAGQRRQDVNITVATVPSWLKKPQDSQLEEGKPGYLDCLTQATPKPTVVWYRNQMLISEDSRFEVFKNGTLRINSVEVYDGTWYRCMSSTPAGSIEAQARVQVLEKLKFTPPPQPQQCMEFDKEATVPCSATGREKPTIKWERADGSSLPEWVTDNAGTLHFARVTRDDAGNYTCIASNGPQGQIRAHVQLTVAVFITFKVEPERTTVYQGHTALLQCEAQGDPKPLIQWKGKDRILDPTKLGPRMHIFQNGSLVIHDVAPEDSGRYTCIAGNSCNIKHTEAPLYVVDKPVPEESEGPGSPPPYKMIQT

T2: PTK7-His antigen protein from rhesus monkey species (rhesus monkey, UniProt F7G3Z5 39-712)
T2 construct: also called Rhesus monkey PTK7; not shown: His tag
T2 sequence: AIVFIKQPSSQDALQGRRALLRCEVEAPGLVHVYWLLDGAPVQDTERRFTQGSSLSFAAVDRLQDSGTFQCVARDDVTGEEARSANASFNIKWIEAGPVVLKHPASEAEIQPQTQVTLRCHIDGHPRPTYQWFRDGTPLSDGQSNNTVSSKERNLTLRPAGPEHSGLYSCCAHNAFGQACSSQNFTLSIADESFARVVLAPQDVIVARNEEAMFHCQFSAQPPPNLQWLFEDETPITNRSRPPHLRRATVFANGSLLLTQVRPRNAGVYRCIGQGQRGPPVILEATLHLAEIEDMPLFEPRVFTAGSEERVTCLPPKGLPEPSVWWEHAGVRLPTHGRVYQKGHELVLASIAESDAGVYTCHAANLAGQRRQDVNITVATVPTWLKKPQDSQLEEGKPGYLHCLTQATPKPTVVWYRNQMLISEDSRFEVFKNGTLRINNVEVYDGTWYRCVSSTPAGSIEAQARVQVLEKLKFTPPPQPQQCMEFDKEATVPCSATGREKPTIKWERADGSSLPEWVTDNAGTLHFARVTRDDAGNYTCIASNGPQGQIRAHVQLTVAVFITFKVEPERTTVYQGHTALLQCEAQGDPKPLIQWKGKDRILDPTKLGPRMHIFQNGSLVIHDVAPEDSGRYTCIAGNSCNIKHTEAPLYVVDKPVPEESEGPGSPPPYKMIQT

T3: PTK7-Fc antigen protein from mouse species (mouse, UniProt Q8BKG3 23-696, limits assumed)
T3 construct: also called Mouse PTK7; not shown: Fc
T3 sequence (looked up): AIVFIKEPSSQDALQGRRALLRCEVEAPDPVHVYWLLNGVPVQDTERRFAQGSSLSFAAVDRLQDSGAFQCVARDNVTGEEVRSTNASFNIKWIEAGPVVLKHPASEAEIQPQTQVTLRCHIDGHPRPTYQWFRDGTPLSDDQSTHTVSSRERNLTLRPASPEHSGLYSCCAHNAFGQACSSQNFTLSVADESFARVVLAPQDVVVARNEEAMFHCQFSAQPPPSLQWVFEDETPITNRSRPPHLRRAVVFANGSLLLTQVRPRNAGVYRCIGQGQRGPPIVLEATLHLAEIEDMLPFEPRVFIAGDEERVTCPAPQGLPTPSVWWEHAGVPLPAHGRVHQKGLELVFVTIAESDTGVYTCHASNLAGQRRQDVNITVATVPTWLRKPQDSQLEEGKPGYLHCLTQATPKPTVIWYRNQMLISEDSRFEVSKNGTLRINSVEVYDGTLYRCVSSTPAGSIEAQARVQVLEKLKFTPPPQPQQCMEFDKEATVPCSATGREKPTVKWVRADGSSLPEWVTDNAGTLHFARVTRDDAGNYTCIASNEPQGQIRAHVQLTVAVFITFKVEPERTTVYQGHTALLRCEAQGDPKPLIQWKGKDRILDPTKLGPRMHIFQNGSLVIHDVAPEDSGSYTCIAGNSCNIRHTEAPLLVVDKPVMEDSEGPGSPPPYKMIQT

B1: MY2132-5-51 (VHH)
VHH: QVQLQESGGGLVQPGGSLTLACAASGFAFSSYAMRWVRQAPGKGLEGVSSISAGGDETYYADFAKGRFTISRDNAKNTLYLQLNSLKTEDTAMYYCAKGDRNSPRYSSWPITPVGQGTQVTVSS
notes: Camel VHH expressed in E. coli WK6 and purified on a nickel column; also called MY2132-5-51 VHH; anti-PTK7 single domain antibody
B2: MY2132-4-22 (VHH)
VHH: QVQLQESGGGSVQAGGSLRLSCTASGFTFDDYDMVWYRQAPGNEYEWLSTVSRGGNLYYADSVKGRFTISRDNAKNTVYLNMSRVKPEDTAVYYCAADLRSVPSTYRARTCRGRYCRDYWGQGTQVTVSS
notes: Camel VHH expressed in E. coli WK6 and purified on a nickel column; also called MY2132-4-22 VHH; anti-PTK7 single domain antibody
B3: MY2132-4-55 (VHH)
VHH: QVQLQESGGGSVQAGGSLRLSCAASGYIWSRYCMGWFRQAPGKAREGVARFNSDGNTRYVDSVKGRFTISRDNAKNTLYLQMNNLQPEDTARYYCAADPRFDCGYDAVFNPTHFPYWGRGTQVTVSS
notes: Camel VHH expressed in E. coli WK6 and purified on a nickel column; also called MY2132-4-55 VHH; anti-PTK7 single domain antibody
B4: MY2132-4-79 (VHH)
VHH: B3 VHH with R119Q
notes: Camel VHH expressed in E. coli WK6 and purified on a nickel column; also called MY2132-4-79 VHH; anti-PTK7 single domain antibody

For the first assay, the target named is T1, human PTK7-Fc protein antigen. The assay is described as follows: ELISA, antigen coated on plate, VHH in gradient dilution, anti-His/anti-HA-HRP; Kd calculated from absorbance at 450 nm. The procedure: (§1) The ELISA plates were coated with PTK7-Fc antigen proteins from human, or mouse species, or PTK7-His antigen protein from rhesus monkey species, overnight at 4° C. The plates were washed for 4 times with PBS-T the next day, added with 1% BSA, and blocked at room temperature for 2 hours. The plates were washed for 4 times with PBS-T, added with the anti-PTK7 single domain antibodies diluted in gradient, and kept at 37° C. for 1 hour. The plates were washed for 4 times with PBS-T, added with mouse anti-His-HRP antibody or mouse anti-HA-HRP antibody, and kept at 37° C. for 1 hour. The plates were washed for 4 times with PBS-T, added with TMB soluble substrate, and kept at room temperature for 10 minutes. The absorption value was read at a wavelength of 450 nm and the Kd value of each single domain antibody was calculated based on the absorption value.
(§2) The anti-PTK7 single domain antibodies of the present invention can bind to human, mouse or rhesus monkey PTK7.
Broadly, the EC50 is the concentration that produces a half-maximal response. For the molecule B1, the 50% effective concentration (EC50) is 610 pM.

For B2, the 50% effective concentration (EC50) was 330 pM.

In the case of B3, the EC50 is 490 pM.

For the molecule B4, the concentration for a half-maximal effect (EC50) is 590 pM.

For the next assay, the target named is T2, PTK7-His antigen protein from rhesus …. Described as above. The method, then: as §1, §2
As to B1, the half-maximal effective concentration (EC50) is 1030 pM.

Consider B2, for which the EC50 is 300 pM.

A further assay has as its target T3, PTK7-Fc antigen protein from mouse …. The assay is described as above. The procedure:
as §1, §2
As to B2, the EC50 was 12700 pM.

The target in a further assay is T1, human PTK7-Fc protein antigen. The assay is described as follows: SPR (Biacore 8K), human PTK7-Fc amine-coupled on CM-5 chip, VHH as analyte. The procedure: The fixed phase human PTK7-Fc antigen proteins were fixed on the surface of CM-5 sensing chip using carboxyl amino reaction. The anti-PTK7 single domain antibodies were diluted with HBS buffer to different concentrations, and the anti-PTK7 single domain antibodies were added at a flow rate of 30 μl/min, binding for 90 seconds, dissociating for 600 seconds, and the binding process between the anti-PTK7 single domain antibody and the antigen was observed. After rinsing with 10 mM glycine solution for chip regeneration, the next anti-PTK7 single domain antibody assay was proceeded.
On the technique in general: Surface plasmon resonance follows binding to a sensor surface in real time, without labels.
The Kd is the concentration at which binding is half-saturated. As a reminder, the koff is the rate constant with which the complex falls apart. As a reminder, the kon is the second-order rate constant of association. Take B1: binding was characterised by a dissociation constant (Kd) of 3450 pM, the koff was found to be 0.00166 s⁻¹ and the on-rate (kon) is 482000 M⁻¹ s⁻¹.

Take B2: the Kd was 2130 pM, the koff worked out at 0.0322 s⁻¹ and the association rate constant (kon) worked out at 1.51e+07 M⁻¹ s⁻¹.

In turn, B3 displayed a Kd of 180 pM, a koff of 0.000314 s⁻¹ and a kon of 1.76e+06 M⁻¹ s⁻¹.

Consider B4, for which the Kd was 220 pM, the off-rate (koff) turned out to be 0.000358 s⁻¹ and the kon was determined as 1.64e+06 M⁻¹ s⁻¹.
